Data set [1] concerns T1, PhaD-His6 (Pseudomonas putida KT2440), ORF:4b0e7042.
T1 sequence: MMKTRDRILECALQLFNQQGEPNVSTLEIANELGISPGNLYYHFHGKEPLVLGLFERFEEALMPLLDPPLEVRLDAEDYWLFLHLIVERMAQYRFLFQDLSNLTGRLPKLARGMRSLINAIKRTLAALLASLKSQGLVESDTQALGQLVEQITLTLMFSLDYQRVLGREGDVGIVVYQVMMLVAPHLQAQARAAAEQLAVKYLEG
The data set can be described thus: EMSA.

For data set [2], the target named is T18‐PhaC1 (bacterial two‐hybrid fusion, pUT18C‐phaC1) (P. putida). Put plainly: two-hybrid.

For the substance “CCGTACACTTCCGAGGATGGGCGCACCTCAGGCAGCATCTGCCGCGGGATGCCCAGGATTTCCAGCAGCTTGTCGTCCCACTGCAGGCTGTGGATGTTGAACATCAGCGTGCGCGAGGCATTGGTGTAGTCGGTGACGTGAACCTTCCCACCCGTAAGCTTCCAGATCAGCCAGGTG (double strand) [glpK coding fragment]”, the binding result in data set [1] is “no binding”.
With “CGCGGATCCATGCTGTGTACCTCATGCTCATGAGTGGTGGAAAACCGCCCATGGAGGCTGGGCTTGAGCATTAAGGTAGGGAAGAAAATTAGAAACCTCACCCTAAGGTCGTCGTTGTCGCATCTATATACCGCAAGCCCCGTTGACCACAGCGCTAGCGTCGCAGGCTTCACCTCACGGACATCGACGCCATGACTGCTGTAGCAAACCCACCCAGGCTGACGTTCAAGCAAAGCGTGGCAGGAATTCCGG (double strand) [PI promoter probe (phaI upstream, 230 bp)]”, in data set [1], the binding entry is listed as “binds”.
In data set [2], “T18‐PhaC1 (bacterial two‐hybrid fusion, pUT18C‐phaC1) (natural protein)” showed a β‐galactosidase activity of 1730 U/mg CDW.

The record behind these values is article PMC7590123.
